Measured values published in article PMC9763686 (The Journal of Biological Chemistry, 2022).

Experiments:
Experiment in all cases: ELISA
Conditions in all cases: one partner purified
[1] = biological target: H1N1-NP (nucleoprotein of A/Guangzhou/01/2009 (H1N1)) (Influenza A virus A/Guangzhou/01/2009 …, UniProt C3W5S2, strain)
[2] = biological target: IBV-NP (nucleoprotein of influenza B virus B/Yamagata/16/1988) (Influenza B virus B/Yamagata/16/1988, UniProt Q82662, strain)
[3] = biological target: H9N2-NP fragment 1 to 1308 bp (N436 amino acids) (Influenza A virus …, UniProt W5RGA6)
[4] = biological target: H9N2-NP fragment 1 to 1215 bp (N405 amino acids) (Influenza A virus …, UniProt W5RGA6)
[5] = biological target: H9N2-NP fragment 1 to 1167 bp (N389 amino acids) (Influenza A virus …, UniProt W5RGA6)
[6] = biological target: H9N2-NP fragment 1 to 1182 bp (N394 amino acids) (Influenza A virus …, UniProt W5RGA6)

Binder	binding result [1]	binding result [2]	binding result [3]	binding result [4]	binding result [5]	binding result [6]
H9N2-NP-Nb5-HRP (VHH) VHH: ESGGGLVQPGGSLRLSCAASGFPFSDYDMNWARQAPGKELEDVSAISSGGTYTYYADSVKGRFTISRDNAKNTLYLQLNSLQTEDTAMYYCGRGWTSGYKSRGQGTQVTVSS	binds	no binding	binds	binds	binds	binds
H9N2-NP-Nb16-HRP (VHH) VHH: ESGGGSVQAGGSLRLSCAASGYTYSAYCMGWFRQAPGKEREEVASIDSDFGTNYADSVKGRFTISKDNPKNTLYLQMNNLKAEDTAMYYCAALKYSSSLCLDALPSRANYWGQGTQVTVSS	binds	no binding	–	–	–	–
H9N2-NP-Nb18-HRP (VHH) VHH: ESGGGSVQAGGSLRLSCAASHTYGTYAMAWFRQAPGEEREGVAAIDSDGETIYADSVKGRFTISRDNAKNILYLQMNSLKPEDTAMYYCAEDLRGVWYGRLELRPGRFTYWGQGTQVTVSS	binds	no binding	–	–	–	–
H9N2-NP-Nb42-HRP (VHH) VHH: ESGGESVQAGGSLRLSCATSGFTYNRSYCMAWFRQVLGKEREGVAVIDRVGGSTYYADSVKGRFTVSQDNAKTTLYLQMNSLTPEDTAMYYCAAVSTLMTTCQGLLAGHSQRYAYWGQGTQVTVSS	binds	no binding	–	–	–	–
H9N2-NP-Nb53-HRP (VHH) VHH: ESGGGSVQAGGSLRLSCAASGYTFSNVYMGWFRQAPGKEREGVAAIDRDGRTTYGDSVKGRFTISQDNAKNILYLQMSSLKPEDTATYYCAADPGYVELISEPLAGIWYRYWGQGTQVTVSS	binds	no binding	–	–	–	–
